In PMC11700292, “Specific inhibition of fibroblast growth factor receptor 1 signaling by a DNA aptamer”:

T1: FGFR4 extracellular domain-Fc (human, UniProt P22455 22-369)
T1 sequence: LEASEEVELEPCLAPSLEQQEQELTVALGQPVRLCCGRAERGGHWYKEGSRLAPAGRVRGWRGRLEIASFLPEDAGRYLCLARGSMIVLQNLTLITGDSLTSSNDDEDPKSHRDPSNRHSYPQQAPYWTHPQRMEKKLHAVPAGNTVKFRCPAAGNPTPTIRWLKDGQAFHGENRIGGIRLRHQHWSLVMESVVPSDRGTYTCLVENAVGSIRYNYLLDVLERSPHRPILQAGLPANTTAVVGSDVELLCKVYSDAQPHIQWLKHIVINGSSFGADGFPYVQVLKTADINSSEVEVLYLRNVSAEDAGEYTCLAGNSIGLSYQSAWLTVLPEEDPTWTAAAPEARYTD


Assays:
[1] = biological target: FGFR1b extracellular domain-Fc (human) (UniProt P11362); test: BLI; conditions: BLI (Octet K2, protein A sensor, FGFR-Fc 5 ug/mL), VZ23 31.25-500 nM in PBS (8.1 mM Na2HPO4, 1.5 mM NaH2PO4, 137 mM NaCl, 2.7 mM KCl as given for NMR) with or …
[2] = biological target: FGFR3c extracellular domain-Fc (human, UniProt P22607 23-375); test: BLI; BLI (Octet K2, protein A sensor, FGFR-Fc 5 ug/mL), VZ23 31.25-500 nM in PBS (8.1 mM Na2HPO4, 1.5 mM NaH2PO4, 137 mM NaCl, 2.7 mM KCl as given for NMR) with or without 2 mM MgCl2; pH 7.3 (stated for CD); temperature not stated; conditions: protein: recombinant; tags: IgG1 Fc fusion; antiparallel G-quadruplex-like fold
[3] = biological target: FGFR2b extracellular domain-Fc (human, UniProt P21802-3 22-378); test: as above; conditions: protein: recombinant; tags: IgG1 Fc fusion; antiparallel G-quadruplex-like fold
[4] = biological target: FGFR2c extracellular domain-Fc (human, UniProt P21802 22-377); test: as above; conditions: protein: recombinant; tags: IgG1 Fc fusion; antiparallel G-quadruplex-like fold
[5] = biological target: T1, FGFR4 extracellular domain-Fc; test: as above; conditions: protein: recombinant; tags: IgG1 Fc fusion; antiparallel G-quadruplex-like fold
[6] = biological target: FGFR3b extracellular domain-Fc (human, UniProt P22607-2 23-377); test: as above; conditions: protein: recombinant; tags: IgG1 Fc fusion; antiparallel G-quadruplex-like fold
[7] = biological target: T2, FGFR1c extracellular domain-Fc (human, UniProt P11362-1 22-376); test: BLI; 2 mM Mg2+; BLI (Octet K2, protein A sensor, FGFR-Fc 5 ug/mL), VZ23 31.25-500 nM in PBS (8.1 mM Na2HPO4, 1.5 mM NaH2PO4, 137 mM NaCl, 2.7 mM KCl as given for NMR) with or without 2 mM MgCl2; pH 7.3 (stated for CD); temperature not stated; conditions: protein: recombinant; tags: IgG1 Fc fusion; antiparallel G-quadruplex-like fold
[8] = biological target: T2, FGFR1c extracellular domain-Fc; test: BLI; PBS, no Mg2+; BLI (Octet K2, protein A sensor, FGFR-Fc 5 ug/mL), VZ23 31.25-500 nM in PBS (8.1 mM Na2HPO4, 1.5 mM NaH2PO4, 137 mM NaCl, 2.7 mM KCl as given for NMR) with or without 2 mM MgCl2; pH 7.3 (stated for CD); temperature not stated; conditions: protein: recombinant; tags: IgG1 Fc fusion; antiparallel G-quadruplex-like fold
[9] = biological target: FGFR1c extracellular domain-Fc;FGF1 (human;human, UniProt P11362-1;P05230 22-376;16-155, |); test: BLI; preformed FGF1:FGFR1c complex; 250 nM each; BLI (Octet K2, protein A sensor, FGFR-Fc 5 ug/mL), VZ23 31.25-500 nM in PBS (8.1 mM Na2HPO4, 1.5 mM NaH2PO4, 137 mM NaCl, 2.7 mM KCl as given for NMR) with or without 2 mM MgCl2; pH 7.3 (stated for CD); temperature not stated; conditions: protein: recombinant;commercial; tags: IgG1 Fc fusion;; antiparallel G-quadruplex-like fold
FGFR1c extracellular domain-Fc;FGF1, sequence (P11362 22-376, chain 1 of 2): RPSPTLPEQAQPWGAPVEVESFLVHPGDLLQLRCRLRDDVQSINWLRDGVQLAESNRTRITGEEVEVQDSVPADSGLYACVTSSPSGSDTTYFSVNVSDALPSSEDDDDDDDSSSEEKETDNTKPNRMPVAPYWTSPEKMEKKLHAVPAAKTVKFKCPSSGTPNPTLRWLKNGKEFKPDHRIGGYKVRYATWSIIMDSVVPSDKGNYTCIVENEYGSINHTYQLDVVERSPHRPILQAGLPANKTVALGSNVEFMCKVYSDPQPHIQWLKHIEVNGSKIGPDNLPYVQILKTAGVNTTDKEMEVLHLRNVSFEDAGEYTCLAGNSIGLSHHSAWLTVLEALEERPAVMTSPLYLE
FGFR1c extracellular domain-Fc;FGF1, sequence (P05230 16-155, chain 2 of 2): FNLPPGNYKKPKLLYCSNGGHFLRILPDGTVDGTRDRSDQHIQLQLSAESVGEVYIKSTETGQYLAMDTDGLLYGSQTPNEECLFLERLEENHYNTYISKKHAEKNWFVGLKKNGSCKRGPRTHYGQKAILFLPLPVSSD

FGFR1b extracellular domain-Fc (human), sequence (P11362 whole entry, the tested form may be a part): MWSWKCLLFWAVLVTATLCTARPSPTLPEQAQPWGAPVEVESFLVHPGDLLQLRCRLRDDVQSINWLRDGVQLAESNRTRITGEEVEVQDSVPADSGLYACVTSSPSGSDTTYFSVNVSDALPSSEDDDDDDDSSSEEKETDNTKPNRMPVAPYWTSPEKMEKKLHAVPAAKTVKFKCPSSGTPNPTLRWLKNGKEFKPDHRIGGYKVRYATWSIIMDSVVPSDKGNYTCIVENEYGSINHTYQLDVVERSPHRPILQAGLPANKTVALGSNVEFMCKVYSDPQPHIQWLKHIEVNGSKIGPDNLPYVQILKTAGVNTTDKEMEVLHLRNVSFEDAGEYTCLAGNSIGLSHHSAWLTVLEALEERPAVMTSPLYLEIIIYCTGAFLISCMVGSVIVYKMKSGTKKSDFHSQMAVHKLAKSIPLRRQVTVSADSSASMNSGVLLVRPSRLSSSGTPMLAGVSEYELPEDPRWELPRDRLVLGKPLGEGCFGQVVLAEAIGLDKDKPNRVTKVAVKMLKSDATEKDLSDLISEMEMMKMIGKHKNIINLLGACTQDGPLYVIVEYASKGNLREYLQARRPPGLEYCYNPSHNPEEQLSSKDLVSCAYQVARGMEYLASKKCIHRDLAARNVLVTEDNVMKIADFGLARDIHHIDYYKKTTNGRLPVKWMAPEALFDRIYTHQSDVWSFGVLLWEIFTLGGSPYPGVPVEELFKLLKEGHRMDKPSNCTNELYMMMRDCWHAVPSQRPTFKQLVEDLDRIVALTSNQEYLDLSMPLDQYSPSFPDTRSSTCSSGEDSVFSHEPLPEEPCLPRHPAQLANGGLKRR
T2 sequence (P11362 22-376): as the sequence (P11362 22-376, chain 1 of 2) above
FGFR3b extracellular domain-Fc, sequence (P22607 other isoform, or with tags, fused parts or gaps): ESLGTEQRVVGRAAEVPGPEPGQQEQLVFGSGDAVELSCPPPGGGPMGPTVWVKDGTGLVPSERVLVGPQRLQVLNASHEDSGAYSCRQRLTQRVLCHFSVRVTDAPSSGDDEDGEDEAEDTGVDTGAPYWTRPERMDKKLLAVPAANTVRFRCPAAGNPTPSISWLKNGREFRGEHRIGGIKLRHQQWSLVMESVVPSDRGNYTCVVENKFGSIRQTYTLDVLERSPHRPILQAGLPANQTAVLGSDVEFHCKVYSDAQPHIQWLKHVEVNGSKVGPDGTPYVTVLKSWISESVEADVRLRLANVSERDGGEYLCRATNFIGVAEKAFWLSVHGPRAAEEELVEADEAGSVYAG
FGFR2b extracellular domain-Fc, sequence (P21802 other isoform, or with tags, fused parts or gaps): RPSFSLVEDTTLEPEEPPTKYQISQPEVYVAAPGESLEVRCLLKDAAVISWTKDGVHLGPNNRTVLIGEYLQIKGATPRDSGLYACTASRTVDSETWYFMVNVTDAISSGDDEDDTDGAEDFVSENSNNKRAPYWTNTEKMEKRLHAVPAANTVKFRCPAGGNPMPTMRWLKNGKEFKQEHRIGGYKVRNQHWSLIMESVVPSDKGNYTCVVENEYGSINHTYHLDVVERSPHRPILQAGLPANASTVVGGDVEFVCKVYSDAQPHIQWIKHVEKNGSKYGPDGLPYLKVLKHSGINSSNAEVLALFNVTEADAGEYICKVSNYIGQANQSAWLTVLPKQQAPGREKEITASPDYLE
FGFR2c extracellular domain-Fc, sequence (P21802 22-377): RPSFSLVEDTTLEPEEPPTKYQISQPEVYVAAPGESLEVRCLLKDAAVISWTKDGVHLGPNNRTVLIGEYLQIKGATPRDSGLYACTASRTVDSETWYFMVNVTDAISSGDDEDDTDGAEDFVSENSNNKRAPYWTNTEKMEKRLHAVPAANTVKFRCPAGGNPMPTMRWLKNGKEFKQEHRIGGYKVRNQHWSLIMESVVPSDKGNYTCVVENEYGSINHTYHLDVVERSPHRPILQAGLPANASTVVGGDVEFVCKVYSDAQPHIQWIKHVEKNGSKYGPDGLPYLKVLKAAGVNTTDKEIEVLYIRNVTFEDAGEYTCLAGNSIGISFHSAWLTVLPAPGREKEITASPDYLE
FGFR3c extracellular domain-Fc, sequence (P22607 23-375): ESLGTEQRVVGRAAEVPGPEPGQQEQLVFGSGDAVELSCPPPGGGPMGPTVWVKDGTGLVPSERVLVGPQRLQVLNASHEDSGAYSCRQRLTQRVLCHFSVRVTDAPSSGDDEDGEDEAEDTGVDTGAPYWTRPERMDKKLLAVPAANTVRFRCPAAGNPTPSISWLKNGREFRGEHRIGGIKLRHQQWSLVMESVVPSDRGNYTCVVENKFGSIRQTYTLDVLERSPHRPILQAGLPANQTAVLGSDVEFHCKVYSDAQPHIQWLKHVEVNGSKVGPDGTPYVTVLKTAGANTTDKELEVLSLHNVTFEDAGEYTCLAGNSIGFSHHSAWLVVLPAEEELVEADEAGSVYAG

Molecule	Kd ([1]; 2 mM Mg2+) [nM]	Kd ([1]; PBS, no Mg2+) [nM]	binding result [2]	binding result [3]	binding result [4]	binding result [5]	binding result [6]	Kd [7] [nM]	Kd [8] [nM]	binding result [9]
GGGATACAGGGCTTTGTCTATGGTGTGGATGGCGGATACC [VZ23]	29.8	54.6								
GGGATACAGGGCTTTGTCTATGGTGTGGATGGCGGATACC (structured_DNA) [VZ23]			no binding	no binding	no binding	no binding	no binding	65.4 ± 5.5	162 ± 48.7	binds
